According to the nanobody polyreactivity screen of Harvey et al. (2022):

Assay: yeast display, Sf9 membrane polyspecificity reagent, FACS + sequencing; frameworks hold sequencing errors
In short: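 A synthetic nanobody library was expressed on Saccharomyces cerevisiae BJ5465 by galactose induction for 36–48 hours. The library was stained for 1 hour at 4 °C with 10% biotinylated, detergent-solubilized Sf9 membrane reagent and enriched with streptavidin microbeads before FACS. Low and high (top ~1%) gates were set on anti-HA fluorescence for expression and streptavidin fluorescence for reagent binding, and each polyreactivity label reflects the gate of origin.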

Row | Sequence | polyreactivity (PSR sort gate)
1 | QVQLVESGGGLVQAGGSLRLSCAASGFIFVPYAMGWYRQAPGKERELVARITWSGGRTYYADSVKGRFTISRDNAKNTVYLQMNSLKPEDTAVYYCNADVYGFDYWGQGTQVTVSS | high polyreactivity
2 | QVQLVESGGGLVQAGGSLRLSCAASGSTFNYYAMGGNRQAPGKESELVAAISTRGSSTSYADSVKGRFTISRDNAKNTVYLQMNSLKPEDTAVYYCTAPRWSPRRYGYWGQGTQVTVSS | high polyreactivity
3 | QVQLVESGGGLVQAGGSLRLSCAASGLTLTWNAMGWYRQAPGKERELVAAITGSGGRTNYADSVKGRFTISRDNAKNTVYLQMNSLKPEDTAVYYCASFRWYHWGTRYDYWGQGTQVTVSS | high polyreactivity
4 | PVQLVESGGGLVQAGGSLRISCAASGSIFRVNAMGWYRQAPGKERELVAAITTNGGSTYYADSVKGRFTISRDNAKNTVYLQMNSLKPEDTAVYYCAADYSLPWSWLYEYWGQGTQVTVSS | low polyreactivity
5 | HVQLVESGGGLVQAGGSLRLSCAASGSTFFWYAMGWYRQATGKERELVAAISKTGGSTYYADSVKGRFTISRDNAQNTVYLQMNSLKPEDTAVYYCNAVRYASKAARSFDYWGQGTQVTVSS | low polyreactivity
6 | QVQLVESGGGLVQAGGSLRLSCAASGLTFRNYAMGLYRQAPGKERELDAAISRSGGSTYYADSVKGRFTISRDYAKNTVYLHMNSLKPEDTAVYYCATRTYRESTYDYWGQGTQVTVSS | high polyreactivity
7 | QVQLVESGGGLVQAGGSLRLSCAASGYIFRFYTMGWYRQAPGKERELVASITRSGGSTYYADSVKGRFTISRDNAKNTVYLQMNSLKPEDTAVYYCNARKTVGMDYWGQGTQVTVSS | low polyreactivity
8 | QVQLVESGGGLVQAGGSLRLTCAASGRIFGRNTMGWYRQAPGKEMELVAAISSSGGSTRYADSVKGRFTISRDNAKNTVYIQMNSLKPEDTALYYCAAVRNRHGYDYWGKGTQVTVSS | high polyreactivity
9 | QVQLVESGGGLVQAGGSLSLSCAASGFIFLGNAMGWYRQAPGKEREVVAAISSGGSTYADSVKGRFTISRDHAKNTVYLQMNSLKPEDTAVYYCAVDRAFRAQNYHEYDYWGQGSQVTVSS | low polyreactivity
10 | QVQLVESGGGLVQAGGSLRLSCAASGITFKAYVMGWYRQAPGKERELVAAITRSGGRTYYADSVKGRFTISRDNAKNTVFLQMNSLKPEDTAVYYCAADGPHHGDGYWGQGTQVTVSS | high polyreactivity
11 | QVHLVESGGGLVQAGGSLRLSCAASGFIFRIYAMGWYRQAPGKERELVAAINSSVSTSYADSVKGRFTISRDNAKNTVYLQMNSLKPEDTAVYYCAASRWPYPSYLYIVDSWGQGTQVTVSS | low polyreactivity
12 | QVQLVETGGGLVQAGGSLRLSCAASGSIFVLYAMGWYRQAPGKEREFVAAISSSGGSTYADSVKGRFTISRDNAKNTVYLQMNSLKPEDTAVYYCARDVYLSDPPRDYDYWGQGTQVTVSS | low polyreactivity
13 | QVQLVESGGGLVQAGRTLRLSCAPSGSIFSYYAMGWYRQAPGKERELVAAITSGGTTYYADSVKGRFTISRDNAKNTVYLQMNSVKPEDTAVYYCAADFVFRWYSYTGRWYSSYDYWGQGTQVTVSS | low polyreactivity
14 | QVQLVESGGDLVQAGGSLRLSCAASGFTLTNYAMGWYRQATGKARELVAAITSSGGSTYYADSVKGRFTISRDNAKNTVYFQMNSLKPEDTAVYYCAAQGSRHFRWRYDYWGQGTQVTVSS | high polyreactivity
15 | QVQLVESGGGLVQAGGSLRLSCAASGRTFYTNAMGCYRQAPGKERELVARIRRGGTTNYADSVKGRFTISRDNAKNTVYLQMNSLKPEDTAVYYCSYSYGYWGQGTQVTVSS | high polyreactivity
16 | QVQLVESGGGLVQAGGSLRLSCAASGLTFAYYAMGWYRQAPGKERELVAAISWNGGRTYYADSVKGRFTISRDNAKNSVYLQMNSLKPEDSAVYYCAAQVTSSFYWGQGTQVTVSS | high polyreactivity
17 | QVQLVESGGGLVQAGGSLRLSCAASGRTFFPYAMGWYRQAPGKEREFVAAITKTDDTTYYADSVKGRFTISRDNAKNTVYLQMNSLKPEDTAVYYCNAGDTQIRFYYWGQGTQVNVSS | low polyreactivity
18 | QVQLVESGGGLVQAGCSLRLSCAPSGSTFKVNDMGWYRQAPGKERELVAAIDKSGGTTYYADSVKGRFTLSRDNAKNTVYYQMNSLKPEDTAVYYCAADVIYEMDYWGQGTQVTVSS | low polyreactivity
19 | QVQLVESGGGLVQAGGSLRLSCAASGLIFFWYTMGWYRQAPGKERELVAAISGSGTGTYYADSVKGRFTISRDNAKNTVYLQMNSLIPEDTAVYYCATDYVYRGYLMNYWGQGTQVTVSS | high polyreactivity
20 | QVQLVESGGALVQAGGSLRLSCAASGYIFRYYAMGWYRQAPGKVREFVAAISRNGGSKSYADSVKGRFTISRDNAKNTVYLQMISLKPEDTAVYYCNKRVGFLYKSDYWGQGTQVTVSS | high polyreactivity
21 | QVQLVESGGGLVQAGGSLRLSCAASGFILYYYAMGWYRQAPGKERELVASISRRGGSTYYADSVKGRFTISRDNAKNTVYLQMNSLKPEDTAVYYCAATETTSRRFGYDYWGQGTQVTVSS | high polyreactivity

Row | Sequence | polyreactivity (PSR sort gate)
22 | QVQLVESGGGLVQAGGSHRISCAASGRTLPSYAMGWYRQAPGKERELVAAISYSGASTYYADSVKGRFTISRDNAKNTVYLQMNSLKPQDTAVYYCAVYRTFRYRYDSWGQGTQVTVSS | high polyreactivity
23 | QVQLVESGAGLVQAGGSLRLSCAASGSTFWWNTMGWYRQAPGKERELVAAITTGGGTYYADSVKGRFTISRDNAKNTVYLQMNSLKPEDTAVYYCAATVRSYGWYAYHYSTYGYWGQGTQVTVSS | low polyreactivity
24 | QVQHVESGGGLVQAGGSLRLSCAASGSIFAGYAMGWYRQAPGKEWELVAAISRRGGRKYYADSVKGRFTISRDNAKNTVYLQMNSLKPEDTAVYYCAVTTPRGPYGYDYWGQGTQVTVSS | high polyreactivity
25 | QVQLVESGGGLVQAGGSLRLSCAASGRTFIGYAMGWYRHAPGKERELVATISVSGGSTYYADSVKGRFTISRDNAKNTVYLQMKSLKPEDTAVYYCDKAYLRYYDGPYDYWGQGTQVTVSS | low polyreactivity
26 | QVQLVESGGGLVQAGGSLRLSCAASGRIFHVYAMGWYRQAPGKERELVAAISSGDRTYYADSVNGRFIISRDNAKNTVYLQMNSLKPEDTAVYYCWLYPAAVSNYWGQGTQVTVSS | low polyreactivity
27 | QVQLVESVGGLDQAGVSLRLSSAASGSTFGSYVMGWYRQSPGKERELVASISDGGITNYADSVKGRFTISRDNAKNTVYLQMNSLNPEDTAVYYCAAATRPFSDYTTEGYYYWGQGTQVTVSS | low polyreactivity
28 | QVQLVESGGGLVQAGGSLRLSCAASGLTFGNYSKGWYRQAPGKERELVAAISKRGGTTYYADSVKGRFTISRDNAKNTVYLQMNSLKPEDTAVYYCAAQVGRGYEVYPVYKYGYWGQGTQVTVSS | high polyreactivity
29 | QVQLVESGGGLVQAGGSLRLSCAASGRTFGYNVMGWYRQAPGKERELVAVINGRGGSTYYADSVKGRFTISRDNAKNTVYLQMNSLKPEDTAVYYCNVVSGGYFEYDYWGQGTQVTVSS | high polyreactivity
30 | QVQHVESGGGVVQAGGSLRLSCAASGIIFPRNALGWYRQAPGKERELVAAIRSSGGTTYYADSVKGRFTISRDNAKNTVYLQMNSLKPEDTAVFYCAAVTTSKFNYWGQGTQVTVSS | low polyreactivity
31 | QVQLVESGGGLVQAGGSLRLSCAASGSIFSSYSMGWYRQAPGKERELVAAISSGDSTYYADSVKGRFTISRDNAKNTVYLQMNSLKPEDTAVYYCAAPWYAWGQGTQVTVSS | low polyreactivity
32 | QVQLVESVGGLVQAGGSLRLSCAASGRIFLWYAMGWYRQAPGKERELVAAISGSGGSTSYADSVKGRITISRDNAKNTVYLQMNSLKPEDTAVYYCAALYRTWARYKVYYWGQGTQVTVSS | high polyreactivity
33 | QVQLVESGGGLVQAGGSLRLSCAASGSTFWTNAMGWYRQAPGKERELVAVISRGGSTNYADSVKGRFTISRDNAKNTVYLQMNSLKPEDTAVYYCAAASYLYGRYYYWGQGTQVTVSS | high polyreactivity
34 | QVQLVESGGGLVQAGGSLRLSCAASGRTFSRYAIGWYRQAPGKERELVASITSRGGSTYYADSVKGRFTISRDNAKNTVYLQMNSLKPEDTAVYYCNVKPTYSPRYWEDYWGQGTQVTVSS | high polyreactivity
35 | QVQLVESGGGLVQAGGSLRLSCAASGRTFDWYAMGWYRPAPGKERELVAAISRSGGSTYYADSVKGRFTISLDNAKNTVYLQMNSLKPEDTAVYYCAKRYAPDSRYYYWGQGTQVTVSS | high polyreactivity
36 | QVQHVESGGGLVQAGGSLRLSCAASGSTIILNAMGWYRQAPGKERELVATISSSDTSTYYADSVKGRFTISRDNANNTVYLQMNSLKPEDTAVYYCNADYYTTSYLQRVIHYGVEYDYWGQGTQVTVSS | low polyreactivity
37 | QVQLVESGGGLVQAGGSLRLSCAASGSTFRQNALGWYRQAPGKERELVAAITYRVASTYYADSVKGRFTISRDNAKNTVYLQMNSLKPEDTAVYYCAAYKRRSNGRYWTYDYWGQGTQVTVSS | high polyreactivity
38 | QVQLVESGGGLVQAGGSLRLSCAASGSIFWSYAMGWYRQAPGKERELVAAITYSGTSTYYADSVKGRFTISRDNAKNTVYLQMNSLKPEDTAVSYCAASPYSRSRYDYWGQGTQVTVSS | low polyreactivity
39 | QVQLVESGGGLVQAGGSLRLSCAASGFTFPTYAMVWYRQAPGKERELVAAITRGGSTYYADSVKGRFTISRDNAKYTVYLQMNSLKPEDTAVYYCAADDPWYEEDYWGQGTQVTVSS | low polyreactivity
40 | QVQLVESGGGLVQAGGSLRLSCAASGSTFTGYAMGWYRQAPGKERELVAGITGSGGSTYYADSVKGRFTISRDNATNTVYLQMNSLKPEDTAVFYCAAAFWYQYVWLDYYWGQGTQVTVSS | low polyreactivity
41 | QVQLVESGGGLVQAGGSLRLSCAASGFIFGYNAMGWYRQAPGKERELVAAISTRGGSTYYADSVKGRFTISRDNAKNTVYLQMNSLKPEDTAVYYCNKVTRVPFDSWGQCTQVTVSS | high polyreactivity
